In paper PMC4150798 (Nucleic Acids Research, 2014):
One block for each molecule: values may come before it.

Tests used:
[1] = molecular target: CPEB4 RRM1–RRM2 (463–665) (human) (UniProt Q17RY0); experiment: native MS
[2] = molecular target: CPEB4 RRM1–RRM2 (463–665) (human) (UniProt Q17RY0); experiment: semi-native SDS PAGE
semi-native SDS PAGE = molecular target: the molecule itself; experiment: semi-native SDS PAGE

stoichiometry N [1]: 2 | maximum dimeric population [2]: < 10% | stoichiometry N [2]: 2
Molecule: CPEB4 RRM1–RRM2 (463–665) (from UniProt Q17RY0 463-665) (domain or fragment)

B1: CPEB4 RRM1 (463–573) (domain or fragment, human, UniProt Q17RY0 463-573, looked up)
chain: NGERVERYSRKVFVGGLPPDIDEDEITASFRRFGPLIVDWPHKAESKSYFPPKGYAFLLFQDESSVQALIDACIEEDGKLYLCVSSPTIKDKPVQIRPWNLSDSDFVMDGS
stoichiometry N (semi-native SDS PAGE): 2
